2 molecules from PMC10023570, “Essential protein P116 extracts cholesterol and other indispensable lipids for Mycoplasmas” (Nature Structural & Molecular Biology, 2023) can be followed below.

One may read the stoichiometry N as a count of units in the complex or per binding partner.

In series [1] the target is P116 W681A (M. pneumoniae) (UniProt P75556). Briefly: SEC-MALS; Superose 6 10/300 GL column, DAWN HELEOS II MALS detector and Optilab T-REX refractive index detector.
Series [2] deals with the molecule itself. The description is as above.

In series [1], “P116 W681A (from UniProt P75556 30-957) (domain or fragment)” showed a rate of dimers to monomers (dimers:monomers) of 0.25.

B1: P116 (30–957), ectodomain of P116 (MPN_213) from Mycoplasma pneumoniae (domain or fragment)
chain: NKTHQVEHESEQSDFQDIRFGLNSVKLPKAQPAAATRITVENGTDKLVNYKSSPQQLFLAKNALKDKLQGEFDKFLSDAKAFPALTADLQEWVDQQLFNPNQSFFDLSAPRSNFTLSSDKKASLDFIFRFTNFTESVQLLKLPEGVSVVVDSKQSFDYYVNASAQKLLVLPLSLPDYTLGLNYMFDHITLNGKVVNKFSFNPFKTNLNLAFSNVYNGVDVFEAQKNLVGKGKYLNTHVKAEDVKKDVNANIKNQFDIAKIIAELMGKALKEFGNQQEGQPLSFLKVMDKVKEDFEKLFNLVRPGLGKFVKDLIQSSSQAENKITVYKLIFDNKKTILNLLKELSIPELNSSLGLVDVLFDGITDSDGLYERLQSFKDLIVPAVKTNEKTAALSPLIEELLTQKDTYVFDLIQKHKGILTNLLKNFLADFQKSTPFMADQVAIFTELFDNEGAFDLFGEADFVDKIAELFLTKRTVKNGEKIETKDSLLVTSLKSLLGEKVAALGDLLDSYIFKNELLNRSVEVAKAEAKDTKGATDYKKEQAKALKKLFKHIGENTLSKTNLDKITLKEVKNTENVELEETETTLKVKKLDVEYKVELGNFEIKNGLIKAMLEFLPDTKDLETTLDKLLFKGESYKAMKDKYIKEGFPGYGWAKGVVPGAFESIENTFKSAIDKTKSIRDLFGDMLFGNDLSSVKETDSFITLGGSFDIKYGGENLNVLPAYYSLINSEIGYQIIGVDTTIDATKVKVELKNKEYKGKSPAINGQVKLSQSFFNVWTNMFDSITKQIFQKKYEFKDNIQVFARNEDNTSRLELDISDPEQRVIPFAFVDGFGIQLKAVDKNITKEAGNTEPKSPVIQLYEALNKEKDQKQQSKQSPKQLDTKTQLGYLLKLGDNWSKDDYKSLIDDTIINNNYLEASFNSKITVDRLG
notes: source: E. coli B834 (DE3), purified (HisTrap, Superdex 200)
In the case of B1, the “stoichiometry N” value in series [2] came to 2.
